The results in this text go back to patent US20030068416A1, “Method of lyophylization to reduce solvent content and enhance product recovery” (priority 2001, published 2003).

Holding throughout (format): physicochemical
Data set [1] is described as follows: Residual solvent content of trypsin after lyophilization, sampled after primary drying and at end of cycle (Example 2). As to the method: (§1) When the solvent is water, the residual solvent content referenced herein refer to levels determined by the FDA approved, modified Karl Fischer method (Meyer and Boyd, Analytical Chem., 31:215-219, 1959; May, et al., J. Biol. Standardization, 10:249-259, 1982; Centers for Biologics Evaluation and Research, FDA, Docket No. 89D-0140, 83-93; 1990) or by near infrared spectroscopy.
1 ml aliquots of trypsin alone or with 100 mM sodium ascorbate were placed in 3 ml vials. Samples were prepared in triplicate and subjected to lyophilization. Samples were removed (using sample thief) at the end of primary drying (22 hours after start of the cycle), the cycle continued to completion (62 hours after start of cycle) at this time vials were sealed under vacuum and removed from the freeze dryer.

Data set [2] is described as follows: Residual solvent content of trypsin frozen overnight at -70 C and lyophilized (Example 3). The conditions noted are these: frozen overnight at -70 C before lyophilization. As to the method:
as §1
1 ml aliquots of trypsin alone or with 100 mM sodium ascorbate were placed in 3 ml vials and frozen overnight at −70° C. Samples were prepared in quadruplicate and subjected to lyophilization. Samples were removed (using sample thief) at the end of primary drying (22 hours after start of the cycle), the cycle continued to completion (62 hours after start of cycle) at this time vials were sealed under vacuum and removed from the freeze dryer.

The nature of data set [3]: Residual solvent content of trypsin after lyophilization (Example 1). The conditions noted are these: primary and secondary drying cycles, 62 hours. As to the method: as §1
1 ml aliquots of trypsin alone or with 100 mM sodium ascorbate were placed in 3 ml vials. Samples were prepared in triplicate and subjected to lyophilization (primary and secondary drying cycles; 62 hours).

Take trypsin: the residual solvent content entry was “about 5.8 % water” in data set [1] (absence of sodium ascorbate, following a primary drying cycle alone (22 hours)); “about 5.4 % water” in data set [1] (absence of sodium ascorbate, following primary and secondary drying cycle (62 hours)); “about 2.8 % water” in data set [1] (presence of 100 mM sodium ascorbate, following a primary drying cycle alone (22 hours)); “about 1.1 % water” in data set [1] (presence of 100 mM sodium ascorbate, following primary and secondary drying cycle (62 hours)); “about 3.9 % water” in data set [2] (absence of ascorbate); 0.7 % water in data set [2] (presence of ascorbate (100 mM sodium ascorbate)). The results for the residual solvent content entry in data set [3] (absence of sodium ascorbate) and in data set [3] (presence of 100 mM sodium ascorbate) were “about 1.8 % water” and “about 0.7 % water”, respectively.
